B1: TPR t1 (parent)
chain: GACCAAUCUGCCCUCAGAGCUCGAGAACAUCUUCGGAUGCAGAGGAGGCAGGCUUCGGUGGCGCGAUAGCGCCAACGUCCUCAACCUCCAAUGCAUCCCACCACAUGAUGAUGCCUGAAGAGCCUUGGUUUUUUG

Variants of: B1
Test: polymerase ribozyme fitness, log enrichment relative to wild type (log ratio); higher = more active; in vitro selection for triplet polymerase activity
Procedure, shortened: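 Streptavidin-bead capture of gel-excised extended constructs, followed by RT-PCR, closed a single triplicate in vitro selection round. That round began by annealing PCR-built, transcribed mutant libraries of each subunit of a heterodimeric triplet polymerase ribozyme with a biotinylated primer, the partner subunit and triplets, then incubating them frozen at −7 °C. After Illumina sequencing of inputs and outputs, genotypes needed ≥10 input reads and ≥1 read per output. Fitness is the base-2 logarithm of genotype enrichment over wild-type enrichment, using inverse-variance-weighted replicate averages.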

Row | Variant | polymerase ribozyme fitness (log ratio)
1 | G45U C56U G122U U129C | -1.59
2 | G47A C53U A118U | -0.687
3 | A46G C73U C88A U130A | -3.03
4 | A46G A50G | 0.425
5 | A46U G117A | -2.21
6 | G45C C79A A121G | -0.868
7 | G45A G60C | -0.0735
8 | G45U G51A G52U | -4.66
9 | A46U C124A | 0.552
10 | A46U C70G | -4.75
11 | G47U G93U | -2.97
12 | G47A G51C G77C C80U U87C C124G U131G | -1.89
13 | A46U C82U | -1.14
14 | G47A G60U C101A | -0.894
15 | G45C A100G G120A U133A | -2.23
16 | A46G U55G | 0.201
17 | G47U A119U | -1.82
18 | G47A C64U G117U | -4.27
19 | A46U A90C U133A | -1.74
20 | A46U U59C G93A U130C | -2.04
21 | G47A C114A | -2.59
22 | A46G A90G | 0.482
23 | G47A C53U | -1.23
24 | G45A U55A | 0.00657

Row | Variant | polymerase ribozyme fitness (log ratio)
25 | G47U G58C C82U C86U | -1.04
26 | G47U A95C U96A | -4.33
27 | A46G G69U | 0.473
28 | G45C G51A G63A U78A C123G | -4.51
29 | G47C A111G C123U | -3.06
30 | G47U C70U C82G G120U C124G G127A | -0.105
31 | G47U G110U | -3.1
32 | G47U G110A | -2.29
33 | A46C C49U A83U | -4.1
34 | G47A A50G C115A | -1.8
35 | G47C G117A | -2.73
36 | G47A A50U C56A G69U G77C | -1.54
37 | G47A A75G U96C | -0.307
38 | G47A G60A C85G C123U | -3.19
39 | G47C U112G C115U U130A | -5.2
40 | A46U G63C | -1.29
41 | G45C G51U G57U C99A G117C | -7.29
42 | G47A U55A | -0.45
43 | G47A G120A U126A | -1.73
44 | G47U C56U A95U | -1.34
45 | G45C U92A | -3.97
46 | G47U C49G C70U U87C A100C | -3.16
47 | A46U C64U C99U | -4.36
48 | G45C C89U | -1.92

Row | Variant | polymerase ribozyme fitness (log ratio)
49 | G47A C102G | -5.8
50 | G47A C102A | -2.65
51 | G45U A50U C114A G135A | -5.32
52 | A46C C53U C56A U112A | 0.259
53 | A46U G63C U112C G117C A121U | -3.75
54 | G47U G63U C85A | -3.29
55 | G47C C49G | -2.19
56 | G45U C64U G77U C79U C114G | -4.61
57 | A46G C53A | -0.35
58 | G47A U78C C88A C97A U106A | -5.69
59 | G47U C76A C79A C80G C94G A100C U116G C124U U129A | -5.73
60 | G45U C89U U92A U106A U133G | -3.32
61 | G45U C53A C72U C89G | -1.72
62 | G47U G77A | -2.15
63 | G47U G77U | -2.07
64 | G45U U78G C88U | -1.1
65 | A46U G77C | -1.54
66 | A46G G113U | -2.95
67 | A46U U54G C72A C82A G110U | -4.48
68 | G45U C73U U87A A105U G135C | -2.69
69 | G47A C73U G117U G135U | -5.34
70 | G45C G69C U133A | -2.27
71 | G45U G61A | -2.11
72 | G45U G61C | -2.72

Row | Variant | polymerase ribozyme fitness (log ratio)
73 | G47U A50U U59C C73A U78A U133A | -2.31
74 | G47A C76G A90G | -0.228
75 | A46U U92C A100U G113C | -4.52
76 | A46G A74C U133A | -0.745
77 | G45C C86G C102U G120U | -7.48
78 | G47U A100U U116A G117A U132A | -5.1
79 | A46C C53A G77U | -0.585
80 | A46U C102U | -4.01
81 | G47U G61C A111C | -2.97
82 | G45C G48U G52U C76U | -4.18
83 | G47C C64A C104U | -7.34
84 | G45C C72U A90U G128C | -4.85
85 | G47U G51U C73U | -6.37
86 | A46U A74U A91G | -3.52
87 | G47A C123U | -0.261
88 | G47A C123A | -0.394
89 | G45A G71U C115G | -2.11
90 | G47U C53U G120U | -1.25
91 | A46U G135C | -1.33
92 | A46U G135U | -1.71
93 | G47A G71U C123A | -0.967
94 | G45C C72A | -0.797
95 | A46U G47A G127C | -3.12
96 | G47C C72G | -2.9

Row | Variant | polymerase ribozyme fitness (log ratio)
97 | G45U G77U G93U G120U | -3.3
98 | G47A C73A U126A | -2.35
99 | G47A G60U G93C C101A | -4.1
100 | G47C U54G G58C G69U | 1.13
101 | A46U G69U C115A | -0.295
102 | G47U C124A U130G | -0.902
103 | G45A U92A | -3.38
104 | G47U C123A | -0.877
105 | A46C C70U C101U | -1.31
106 | G47U A90U G117C | -4.37
107 | A46U G69A | -3.54
108 | A46U G69U | -0.372
109 | A46G G47U G120U U132A | -1.09
110 | A46U U55A G69A U125A | -4.29
111 | G45U C70A C123U | -1.23
112 | G47A G69U C86A C97U C115U C124G U125C | -0.107
113 | G47U G60U U112G | -1.51
114 | G47U C80A G113A | -6.73
115 | G45U G63A | -2.32
116 | G45U C94U C102U | -3.33
117 | G47U C72G U81A | -3.46
118 | G47A U133A | -1.33
119 | G45U G47A U116C | -5.47
120 | G45U A50U A84U G117C | -7.49

Row | Variant | polymerase ribozyme fitness (log ratio)
121 | G47A C49A U132A | -1.53
122 | A46C G48A C101U G110C | -6.49
123 | G45A U59A C104U | -0.336
124 | G47C U125A | -2.59
125 | G47U C53A C114A | -2.64
126 | G45U A46C G127C | -2.82
127 | G47C G77C C98U G113C U130C | -6.15
128 | G47A C85G G113A U132A | -2.45
129 | G47U G48U C79U | -2.83
130 | A46U U109A | -6.04
131 | A46U C76G | -1.01
132 | G45U C53A G61C | -5.95
133 | G47A C104A | -2.7
134 | G47A G71C | -1.56
135 | A46G A103U U125A | -5.23
136 | A46C G47A A50G C97A A121G C124G | -5.64
137 | A46G U78A U112G | 0.172
138 | A46G C124U | 0.675
139 | G47C C123G | -1.31
140 | G45U C56A G128C | -5.66
141 | G47U G57A | -1.73
142 | G47C C89U C124G | -0.507
143 | G45U G69A | -4.29
144 | G45C C62U | -1.63

Row | Variant | polymerase ribozyme fitness (log ratio)
145 | G45U G47U G60A C98G | -7.59
146 | A46U U131C | -1.72
147 | G45U G135U | -2.03
148 | G47A C101U G122A | -1.99
149 | G45C G69U C82A G127A | -3.34
150 | A46C G47A C53A G60A C73G | -1.61
151 | G47U A95C G128C | -4.33
152 | G47A C72A C86A U96G G117U | -4.69
153 | G45U C72U U87A | -1.19
154 | A46G A66U C73A C82G | -2.3
155 | A46U C49U C72A A121C | 0.996
156 | A46C U87A A91C U96A | -2.01
157 | A46C C53U U54G G71U G120U | -0.575
158 | A46U C53U A84C C88U | -1.14
159 | G45U C86U U87A C124U U130C | -1.19
160 | A46U A66G G77A | -1.99
161 | G47C U55G G71U U106A U129A G135C | -2.24
162 | A46G G57A C73U A83G U112C | -0.119
163 | G47A A90C U112A | -2.17
164 | G47U C98U U112A | -3.7
165 | A46U G61A | 0.101
166 | G45U G93U A100C C104A | -6.03
167 | G45A G61A A74U | -1.29

From the RNAGym collection of RNA variant scans (doi:10.1073/pnas.2313332121)
